According to paper PMC3887258:

Legend:
[1] = target: Human metapneumovirus matrix protein (M), untagged (human metapneumovirus, strain NL1-00); test: negative-stain electron microscopy, 2D class averages; free M in samples of 7.2 μM M incubated with 400 μM DOPC for 7 days at 37°C; 2% uranyl acetate
[2] = target: Human metapneumovirus matrix protein (M), untagged (human metapneumovirus, strain NL1-00); test: crystal structure; 2.8 Å, space group P3_(1); crystals from 20% PEG 6000, 100 mM Tris pH 8.0, 10 mM zinc chloride, 20°C; mixture of intact and proteolysed untagged M
[3] = target: Human metapneumovirus matrix protein (M), untagged (human metapneumovirus, strain NL1-00); test: SAXS; untagged M in 1 M NaCl buffer, or as 9:1 mixture with SUMO-3C-M in 1 M NDSB-201 buffer; 1 to 4 mg/ml; 20°C, BM29 ESRF; fitted with MD-based ensemble optimisation

Measured: stoichiometry N

Human metapneumovirus matrix protein (M), untagged (natural protein)
2: all assays above
